Where a chain is given by its changes, count along the chain named.

The results in this text go back to paper PMC2949602, “Genome-wide search identifies Ccnd2 as a direct transcriptional target of Elf5 in mouse mammary gland”.

One data set deals with T1, GST-Elf5 MT2 (R219A) (mouse, UniProt Q8VDK3 1-253, R219A).
T1 sequence: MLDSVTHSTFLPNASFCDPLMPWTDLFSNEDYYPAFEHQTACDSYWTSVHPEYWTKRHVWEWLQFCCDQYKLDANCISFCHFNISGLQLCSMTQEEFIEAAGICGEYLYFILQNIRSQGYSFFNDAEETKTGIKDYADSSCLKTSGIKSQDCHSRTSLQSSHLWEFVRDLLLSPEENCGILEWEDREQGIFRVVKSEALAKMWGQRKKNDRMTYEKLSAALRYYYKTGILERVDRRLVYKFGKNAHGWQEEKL
Nature of the data set: EMSA; 20 mM HEPES pH 7.9, 75 mM KCl, 2.5 mM MgCl2, 1 mM EDTA, 0.5 mM DTT, 10% glycerol, 1 ug poly(dA-dT), room temperature; 5% nondenaturing PAGE. The settings on record: protein: recombinant; label: 32P (Klenow fill-in with dCTP); 5' overhangs 3 nt each end as annealed, filled in by Klenow.

For another data set, the target named is T2, GST-Elf5 MT1 (K216A) (mouse, UniProt Q8VDK3 1-253, K216A).
T2 sequence: T1 sequence with K216A, A219R
The description is as above. The note with it: protein: recombinant; label: 32P (Klenow fill-in with dCTP); 5' overhangs 3 nt each end as annealed, filled in by Klenow.

B1: Cyclin D2 upstream region 1 oligo (dsDNA)
DNA 1: CAGATTAGAAAGGAAAAGGATTACAGTAGT
DNA 2: GTGACTACTGTAATCCTTTTCCTTTCTAAT
For the molecule B1, the binding result in the data set with GST-Elf5 MT2 (R219A) and in the data set with GST-Elf5 MT1 (K216A) was “no binding” each time.

B2: Cyclin D2 upstream region 2 oligo (dsDNA)
DNA 1: GAGCCAGCAGGATGCTTGACATTCCAGCTGCTGG
DNA 2: AGGCCAGCAGCTGGAATGTCAAGCATCCTGCTGG
Regarding B2, the binding result with GST-Elf5 MT2 (R219A) and in the data set with GST-Elf5 MT1 (K216A) was “no binding” in each case.
